# Results from patent publication US20220267440A1 (ABSOS, published 2022).
# Positions count from the first letter of the chain named.
# B1: anti-CD47 AlivaMab antibody 107 (antibody, IgG1, V domains shown)
# VH: QVQLQESGPGLMKPSETLSLTCTVSGGSISSYYWTWIRQPPGKGLEWIGYIYYSGSTNYNPSLKSRVTISVDTSKNQFSLKLSSVTAADTAVYYCARGRGALTAWGQGTLVTVSS
# VL: DIQLTQSPSFLSASVGDRVTITCRASQDIGSYLAWCQQKPGKAPKLLIYAASTLQGGVPSRFSGSGSGTEFTLTISSLQPEDFATYYCQQLNSYPLTFGGGTKVEIK
# notes: Chimeric AlivaMab Mouse mAb from hybridoma: human V, CH1 and upper hinge, mouse middle hinge, CH2 and CH3, human kappa light chain
# B2: anti-CD47 AlivaMab antibody 91 (antibody, IgG1, V domains shown)
# VH: B1 VH with M12V, S31T, T35S, S56T, G98K, G100D, L102F, T103D, A104I, L110M
# VL: EIVLTQSPGTLSLSPGERATLSCRASQSVSSTYLAWSQQKPGQAPRLLIYGASSRATGIPDRFSGSGSGTDFTLTISRLEPEDFAVYYCQQYGSSRTFGQGTKVEIK
# notes: Chimeric AlivaMab Mouse mAb from hybridoma: human V, CH1 and upper hinge, mouse middle hinge, CH2 and CH3, human kappa light chain; also called clone 91; mAb 91
# B3: anti-CD47 AlivaMab antibody 102 (antibody, IgG1, V domains shown)
# VH: B1 VH with M12V, S31N, T35S, G98K, G100D, A101T, L102F, T103D, A104I, L110M
# VL: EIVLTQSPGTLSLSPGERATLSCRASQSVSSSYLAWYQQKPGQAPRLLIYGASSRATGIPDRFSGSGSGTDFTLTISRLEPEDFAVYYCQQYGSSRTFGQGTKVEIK
# notes: as for B1
# B4: anti-CD47 AlivaMab antibody 161 (antibody, IgG1, V domains shown)
# VH: QVQLQESGPGLVKPSETLSLTCTVSGGSISSYYWSWIRQPPGKGLEWIGYIYYSGSTNYNPSLKSRVTISVDTSKNQFSLKLSSVTAADTAVYYCARSRYFDLWGRGTLVTVSS
# VL: DIQMTQSPSAMSTSVGDRVTITCRASQGISNFLAWFQQKPGKVPKRLIYAASSLQSGVPSRFSGSGSGTEFTLTISSLQPEDFATYYCLQHNSYPYTFGQGTKLEIK
# notes: Chimeric AlivaMab Mouse mAb from hybridoma: human V, CH1 and upper hinge, mouse middle hinge, CH2 and CH3, human kappa light chain; also called clone 161; mAb 161
# B5: anti-CD47 AlivaMab antibody 85 (antibody, IgG1, V domains shown)
# VH: QVQLQESGPGLVKASETLSLTCTVSGGSISGYYWSWIRQPAGKGLEWIGRIYNSGSTNYNPSLKSRVTMSVDTSKNQFSLKLSSVTAADTAVYYCARQTYLDYWGQGTLVTVSS
# VL: B4 VL with T13A, N31I, F32Y, Y96L, Q100G, L104V
# notes: Chimeric AlivaMab Mouse mAb from hybridoma: human V, CH1 and upper hinge, mouse middle hinge, CH2 and CH3, human kappa light chain; also called clone 85; mAb 85
# B6: anti-CD47 AlivaMab antibody 164 (antibody, IgG1, V domains shown)
# VH: B1 VH with M12V, T35S, I51V, S56G, G98K, A101T, L102F, T103D, A104Y
# VL: DIQMTQSPSSVSASVGDRVTITCRASQGISSWLAWYQQKPGKAPKLLIYAASSLQSGVPSRFSGSGSGTDFTLTISSLQPEDFATYFCQQANSFPLTFGGGTKVEIK
# notes: Chimeric AlivaMab Mouse mAb from hybridoma: human V, CH1 and upper hinge, mouse middle hinge, CH2 and CH3, human kappa light chain; also called clone 164; mAb 164
# B7: anti-CD47 AlivaMab antibody 106 (antibody, IgG1, V domains shown)
# VH: QVQLQGSGPGLVKPSETLSLTCTVSGGSINNYYWSWIRQPPGKGLEWIGYIYYSGSTNSNPSLKSRVTISVDTSKNQFSLKLNSVTAADTAVYYCARKRDAFDIWGQGTMVTVSS
# VL: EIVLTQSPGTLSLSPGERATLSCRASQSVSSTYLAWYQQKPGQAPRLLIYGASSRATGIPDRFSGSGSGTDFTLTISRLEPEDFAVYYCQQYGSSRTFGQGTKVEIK
# notes: as for B1
# B8: anti-CD47 AlivaMab antibody 14 (antibody, IgG1, V domains shown)
# VH: B4 VH with S98K, Y100G, F101L, L103I, R106Q, L109M
# VL: not shown
# notes: Chimeric AlivaMab Mouse mAb from hybridoma: human V, CH1 and upper hinge, mouse middle hinge, CH2 and CH3, human kappa light chain; also called clone 14; mAb 14
# B9: anti-CD47 AlivaMab antibody 143 (antibody, IgG1, V domains shown)
# VH: QVQLQESGPGLVKPSETLSLTCTVSGGSINNYYWSWIRQPPGKGLEWIGYIYYSGSTNYNPSLRSRVTISVDTSKNQFSLKLSSVAAADTAVYYCARQKGMDVWGQGTTVTVSS
# VL: B4 VL with T13A, F32Y, Y96P, L104V
# notes: Chimeric AlivaMab Mouse mAb from hybridoma: human V, CH1 and upper hinge, mouse middle hinge, CH2 and CH3, human kappa light chain; also called clone 143; mAb 143
# B10: anti-CD47 AlivaMab antibody 10 (antibody, IgG2a, V domains shown)
# VH: B7 VH with G6E, N30R, N31T, S59Y, N83S, R99K, D100G
# VL: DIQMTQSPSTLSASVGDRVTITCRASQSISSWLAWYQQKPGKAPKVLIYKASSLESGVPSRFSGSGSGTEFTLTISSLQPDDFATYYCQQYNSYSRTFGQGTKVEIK
# notes: Chimeric AlivaMab Mouse mAb from hybridoma: human V, CH1 and upper hinge, mouse middle hinge, CH2 and CH3, human kappa light chain; also called clone 10; mAb 10
# B11: anti-CD47 AlivaMab antibody 101 (antibody, IgG1, V domains shown)
# VH: B1 VH with M12V, S31F, Y50F
# VL: not shown
# notes: as for B1
# B12: anti-CD47 AlivaMab antibody 144 (antibody, IgG1, V domains shown)
# VH: B1 VH with M12V, T35S, S56T, G98K, A101E, L102F, T103D, A104Y
# VL: B6 VL with V15E, S31R, F87Y
# notes: Chimeric AlivaMab Mouse mAb from hybridoma: human V, CH1 and upper hinge, mouse middle hinge, CH2 and CH3, human kappa light chain; also called clone 144; mAb 144
# B13: anti-CD47 AlivaMab antibody 90 (antibody, IgG1, V domains shown)
# VH: B1 VH with M12V, S30N, S31N, T35S, N60H, S83T, Y93F, G100R
# VL: B1 VL with L4V, D28G, G30S, C36Y, G56S, V104M
# notes: Chimeric AlivaMab Mouse mAb from hybridoma: human V, CH1 and upper hinge, mouse middle hinge, CH2 and CH3, human kappa light chain; also called clone 90; mAb 90
# B14: anti-CD47 AlivaMab antibody 87 (antibody, IgG1, V domains shown)
# VH: B1 VH with M12V, T35S, S83N, G98K, G100A, A101F, T103D, A104Y
# VL: B6 VL with V11L, S31N, W32Y, Y36F, L46S, S56G, R61K, F87Y, A91Y, F94Y
# notes: Chimeric AlivaMab Mouse mAb from hybridoma: human V, CH1 and upper hinge, mouse middle hinge, CH2 and CH3, human kappa light chain; also called clone 87; mAb 87
# B15: anti-CD47 AlivaMab antibody 153 (antibody, IgG1, V domains shown)
# VH: B7 VH with G6E, N31Y, S59Y, N83S, D100S, A101S, F102Y, I104Y, M110L
# VL: B4 VL with T13A, F32Y, K45R, Y96W, L104V
# notes: Chimeric AlivaMab Mouse mAb from hybridoma: human V, CH1 and upper hinge, mouse middle hinge, CH2 and CH3, human kappa light chain; also called clone 153; mAb 153
# B16: anti-CD47 AlivaMab antibody 5 (antibody, IgG1, V domains shown)
# VH: B1 VH with M12V, T35S, R99K, A101G, L102T, T103D, A104Y
# VL: B6 VL with F87Y, L96R, G100Q
# notes: Chimeric AlivaMab Mouse mAb from hybridoma: human V, CH1 and upper hinge, mouse middle hinge, CH2 and CH3, human kappa light chain; also called clone 5; mAb 5
# Target: T1, recombinant human CD47 (Novoprotein cat no. C321, lot no. 0329689) (human, UniProt Q08722 19-139)
# T1 construct: Bought reagent
# Assay: SPR (ProteOn XPR36), mAb captured on anti-mouse Fc, CD47 as analyte, 25 C, 1:1 model
# Description: (§1) Binding kinetics were measured at 25° C. using a BioRad ProteOn XPR36 optical biosensor equipped with GLM sensor chips and equilibrated with running buffer (HBS, 0.005% TWEEN-20, 0.1 mg/mL BSA, pH 7.4).
# (§2) CD47 was tested in a three-fold dilution series starting at 100 nM.
Binder,Kd [nM],koff [s⁻¹],kon [M⁻¹ s⁻¹]
B1,0.163,0.00093,5.7e+06
B2,0.154,0.00111,7.2e+06
B3,0.32,0.00221,6.9e+06

# Target: T2, human CD47 extracellular domain with a histidine- (HIS-) tag (Sino Biological, China) (human, UniProt Q08722 19-139)
# T2 construct: extracellular domain; also called huCD47; huCD47 protein (Sino Biological, China 10161-H08H); not shown: histidine tag
# Assay: competition ELISA on huCD47 after 1A
row,Binder,competition matrix cell (no name or unit printed)
1,B4,106
2,B5,98
3,B6,103

# Target: T2, human CD47 extracellular domain with a …
# Assay: competition ELISA on huCD47 after 141A
# Description: (§3) A competition ELISA was performed to establish competitive binding bins. […] After washing, wells were incubated with an AlivaMab monoclonal antibody representing one of seven unique competition bins. After 1 hour the wells were washed and incubated with individual clonal anti-huCD47 AlivaMab hybridoma supernatants. […] Individual AlivaMab Mouse antibodies that were unable to bind in the presence of a mouse antibody are considered to be in the same epitope bin as that particular mouse antibody.
row,Binder,competition matrix cell (no name or unit printed)
1,B4,107
2,B5,102
3,B6,100

# Target: T3, recombinant CD47-Fc (Sino Biologics) (human, UniProt Q08722 19-139)
# T3 construct: Bought reagent; also called human CD47-Fc; not shown: Fc
# Assay: competition ELISA: HIS-tagged SIRP α binding to plate-bound CD47-Fc, antibody titrated
row,Binder,IC50 [nM]
1,B7,2.9
2,B4,3
3,B8,3.5
4,B9,96
5,B5,4.9
6,B1,2.7
7,B10,4.7
8,B11,15
9,B2,2.1
10,B12,10
11,B13,53.6
12,B6,4.8
13,B14,3
14,B15,27.9
15,B16,3.5
16,B3,2.3

# Target: T2, human CD47 extracellular domain with a …
# Assay: competition ELISA on huCD47, row G1 Alone
# Description: as §3
row,Binder,competition matrix cell (no name or unit printed)
1,B4,100
2,B5,100
3,B1,100
4,B11,100
5,B6,100

# Target: T2, human CD47 extracellular domain with a …
# Assay: competition ELISA on huCD47 after 10A; cross-hatched cell
# Description: as §3
row,Binder,competition matrix cell (no name or unit printed)
1,B4,89
2,B5,83
3,B1,85
4,B11,61
5,B16,73

# Target: T2, human CD47 extracellular domain with a …
# Assay: competition ELISA on huCD47 after 156A
# Description: as §3
row,Binder,competition matrix cell (no name or unit printed)
1,B4,112
2,B5,95
3,B6,120

# Target: T2, human CD47 extracellular domain with a …
# Assay: competition ELISA on huCD47 after 10A
# Description: as §3
row,Binder,competition matrix cell (no name or unit printed)
1,B1,100
2,B11,92
3,B6,97
4,B16,93

# Target: T2, human CD47 extracellular domain with a …
# Assay: competition ELISA on huCD47 after 27A
# Description: as §3
row,Binder,competition matrix cell (no name or unit printed)
1,B4,105
2,B5,98
3,B1,106
4,B6,108

# Target: T2, human CD47 extracellular domain with a …
# Assay: competition ELISA on huCD47 after 35A
# Description: as §3
row,Binder,competition matrix cell (no name or unit printed)
1,B4,109
2,B5,104
3,B6,117
4,B16,97

# Target: T1, recombinant human CD47 (Novoprotein cat …)
# Assay: SPR summary table, 25 C
# Description: as §1, §2
Binder,Kd [nM],koff [s⁻¹],kon [M⁻¹ s⁻¹]
B1,0.16,0.00093,5.7e+06
B2,0.15,0.00111,7.2e+06
B3,0.32,0.00221,6.9e+06
